Source: article PMC3505976

T1: hIghmbp2hd (helicase core) (human (Homo sapiens), UniProt P38935 1-652)
T1 sequence: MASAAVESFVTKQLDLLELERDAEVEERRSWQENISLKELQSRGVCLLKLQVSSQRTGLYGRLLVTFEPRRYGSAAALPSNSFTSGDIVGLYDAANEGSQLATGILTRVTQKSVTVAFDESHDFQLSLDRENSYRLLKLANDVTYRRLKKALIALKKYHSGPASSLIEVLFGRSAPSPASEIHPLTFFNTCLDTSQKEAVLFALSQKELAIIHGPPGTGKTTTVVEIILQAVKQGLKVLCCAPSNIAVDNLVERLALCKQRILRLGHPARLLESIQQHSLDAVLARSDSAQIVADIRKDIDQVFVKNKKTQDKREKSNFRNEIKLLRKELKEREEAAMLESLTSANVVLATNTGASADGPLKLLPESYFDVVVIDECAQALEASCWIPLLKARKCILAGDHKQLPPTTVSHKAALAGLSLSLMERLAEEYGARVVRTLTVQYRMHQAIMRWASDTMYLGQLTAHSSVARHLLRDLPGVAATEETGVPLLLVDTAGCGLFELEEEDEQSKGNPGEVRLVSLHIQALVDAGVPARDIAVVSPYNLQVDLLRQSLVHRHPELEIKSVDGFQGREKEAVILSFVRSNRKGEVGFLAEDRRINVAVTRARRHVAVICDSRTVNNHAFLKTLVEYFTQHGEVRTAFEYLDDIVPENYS

T2: mIghmbp2hd-R3H (helicase core + R3H) (mouse, UniProt P40694 1-786)
T2 sequence: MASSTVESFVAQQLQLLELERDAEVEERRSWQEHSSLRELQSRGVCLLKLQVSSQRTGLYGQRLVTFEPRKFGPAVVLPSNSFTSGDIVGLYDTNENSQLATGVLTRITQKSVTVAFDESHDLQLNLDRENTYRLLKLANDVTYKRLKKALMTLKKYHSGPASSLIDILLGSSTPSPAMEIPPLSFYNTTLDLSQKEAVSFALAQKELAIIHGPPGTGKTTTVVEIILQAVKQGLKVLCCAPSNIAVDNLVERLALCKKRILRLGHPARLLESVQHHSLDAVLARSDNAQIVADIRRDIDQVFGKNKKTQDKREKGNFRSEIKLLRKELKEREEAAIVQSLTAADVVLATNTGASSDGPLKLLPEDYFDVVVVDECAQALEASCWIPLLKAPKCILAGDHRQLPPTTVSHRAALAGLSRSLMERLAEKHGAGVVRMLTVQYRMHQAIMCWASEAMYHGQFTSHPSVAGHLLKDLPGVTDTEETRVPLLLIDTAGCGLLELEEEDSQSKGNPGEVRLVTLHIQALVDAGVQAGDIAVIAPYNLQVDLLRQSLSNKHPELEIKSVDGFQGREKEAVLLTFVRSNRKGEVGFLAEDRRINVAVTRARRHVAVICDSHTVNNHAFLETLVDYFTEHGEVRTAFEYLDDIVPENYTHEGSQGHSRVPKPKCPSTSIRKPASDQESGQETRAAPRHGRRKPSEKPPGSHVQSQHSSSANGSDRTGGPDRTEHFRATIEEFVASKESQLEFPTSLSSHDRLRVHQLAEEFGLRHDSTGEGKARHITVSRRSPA


Key:
[1] = molecular target: T1, hIghmbp2hd (helicase core); experiment: crystal structure
[2] = molecular target: T2, mIghmbp2hd-R3H (helicase core + R3H); experiment: fluorescence anisotropy
[3] = molecular target: T1, hIghmbp2hd (helicase core); experiment: fluorescence anisotropy

Binder	binding result [1]	Kd [2] [nM]	Kd [3] [nM]
AAAAAAAAAA (ssRNA) [A10 ssRNA]	binds		
UUUUUUUUUUUUUUU (ssRNA) [U15 ssRNA]		107 ± 29	1080 ± 130
